Molecular target: rat anti-DNP (IgG^DNP, clone: LO-DNP-2) photocrosslinked with IBA-biotin
Assay: ELISA, anti-Fc HRP secondary on UV exposed IBA-biotin photocrosslinked IgG^DNP (antigen-bound or directly adsorbed), relative to no UV

Fc recognition (percent activity at 2.0 J/cm^2 UV): 75%
Substance: HRP-conjugated IgG Fcγ specific goat anti-rat (antibody)

From patent US20160022834A1
